Results as given in patent publication US20200277346A1 (GOVERNING COUNCIL OF THE UNIVERSITY OF TORONTO, published 2020).

B1: KIAA0317 HECT domain (enzyme, human, UniProt O15033 436-823, looked up)
chain: SETFQDKVNFFQRELRQVHMKRPHSKVTLKVSRHALLESSLKATRNFSISDWSKNFEVVFQDEEALDWGGPRREWFELICKALFDTTNQLFTRFSDNNQALVHPNPNRPAHLRLKMYEFAGRLVGKCLYESSLGGAYKQLVRARFTRSFLAQIIGLRMHYKYFETDDPEFYKSKVCFILNNDMSEMELVFAEEKYNKSGQLDKVVELMTGGAQTPVTNANKIFYLNLLAQYRLASQVKEEVEHFLKGLNELVPENLLAIFDENELELLMCGTGDISVSDFKAHAVVVGGSWHFREKVMRWFWTVVSSLTQEELARLLQFTTGSSQLPPGGFAALCPSFQIIAAPTHSTLPTAHTCFNQLCLPTYDSYEEVHRMLQLAISEGCEGFGML
notes: domain: HECT domain; His- and Avi-tagged for selection and ELISA
B2: HERC6 HECT domain (enzyme, human, UniProt Q8IVU3 650-1022, looked up)
chain: KAYMLMHETILQKKDEFPPSPRFILRVRRSRLVKDALRQLSQAEATDFCKVLVVEFINEICPESGGVSSEFFHCMFEEMTKPEYGMFMYPEMGSCMWFPAKPKPEKKRYFLFGMLCGLSLFNLNVANLPFPLALYKKLLDQKPSLEDLKELSPRLGKSLQEVLDDAADDIGDALCIRFSIHWDQNDVDLIPNGISIPVDQTNKRDYVSKYIDYIFNVSVKAVYEEFQRGFYRVCEKEILRHFYPEELMTAIIGNTDYDWKQFEQNSKYEQGYQKSHPTIQLFWKAFHKLTLDEKKKFLFFLTGRDRLHARGIQKMEIVFRCPETFSERDHPTSITCHNILSLPKYSTMERMEEALQVAINNNRGFVSPMLTQS
notes: domain: HECT domain; His- and Avi-tagged for selection and ELISA; also called H6
B3: UBE3C HECT domain (enzyme, human, UniProt Q15386 693-1083, looked up)
chain: VPFEERVKIFQRLIYADKQEVQGDGPFLDGINVTIRRNYIYEDAYDKLSPENEPDLKKRIRVHLLNAHGLDEAGIDGGGIFREFLNELLKSGFNPNQGFFKTTNEGLLYPNPAAQMLVGDSFARHYYFLGRMLGKALYENMLVELPFAGFFLSKLLGTSADVDIHHLASLDPEVYKNLLFLKSYEDDVEELGLNFTVVNNDLGEAQVVELKFGGKDIPVTSANRIAYIHLVADYRLNRQIRQHCLAFRQGLANVVSLEWLRMFDQQEIQVLISGAQVPISLEDLKSFTNYSGGYSADHPVIKVFWRVVEGFTDEEKRKLLKFVTSCSRPPLLGFKELYPAFCIHNGGSDLERLPTASTCMNLLKLPEFYDETLLRSKLLYAIECAAGFELS
notes: as for B1
B4: HERC1 HECT domain (enzyme, human, UniProt Q15751 4460-4861, looked up)
chain: IGKTMVQGKNYGPQITVKRISTRGRKCKPIFVQIARQVVKLNASDLRLPSRAWKVKLVGEGADDAGGVFDDTITEMCQELETGIVDLLIPSPNATAEVGYNRDRFLFNPSACLDEHLMQFKFLGILMGVAIRTKKPLDLHLAPLVWKQLCCVPLTLEDLEEVDLLYVQTLNSILHIEDSGITEESFHEMIPLDSFVGQSADGKMVPIIPGGNSIPLTFSNRKEYVERAIEYRLHEMDRQVAAVREGMSWIVPVPLLSLLTAKQLEQMVCGMPEISVEVLKKVVRYREVDEQHQLVQWFWHTLEEFSNEERVLFMRFVSGRSRLPANTADISQRFQIMKVDRPYDSLPTSQTCFFQLRLPPYSSQLVMAERLRYAINNCRSIDMDNYMLSRNVDNAEGSDTDY
notes: domain: HECT domain; His- and Avi-tagged for selection and ELISA; also called H1
B5: HERC4 HECT domain (enzyme, human, UniProt Q5GLZ8 685-1057, looked up)
chain: AIDQAHRQNVSSLFLPVIESVNPCLILVVRRENIVGDAMEVLRKTKNIDYKKPLKVIFVGEDAVDAGGVRKEFFLLIMRELLDPKYGMFRYYEDSRLIWFSDKTFEDSDLFHLIGVICGLAIYNCTIVDLHFPLALYKKLLKKKPSLDDLKELMPDVGRSMQQLLDYPEDDIEETFCLNFTITVENFGATEVKELVLNGADTAVNKQNRQEFVDAYVDYIFNKSVASLFDAFHAGFHKVCGGKVLLLFQPNELQAMVIGNTNYDWKELEKNTEYKGEYWAEHPTIKIFWEVFHELPLEKKKQFLLFLTGSDRIPILGMKSLKLVIQSTGGGEEYLPVSHTCFNLLDLPKYTEKETLRSKLIQAIDHNEGFSLI
notes: domain: HECT domain; His- and Avi-tagged for selection and ELISA; also called H4
B6: HECW1 HECT domain (enzyme)
chain: not shown
notes: as for B1
B7: SMURF1 HECT domain (enzyme, human, UniProt Q9HCE7 374-757, looked up)
chain: YERDLVQKLKVLRHELSLQQPQAGHCRIEVSREEIFEESYRQIMKMRPKDLKKRLMVKFRGEEGLDYGGVAREWLYLLCHEMLNPYYGLFQYSTDNIYMLQINPDSSINPDHLSYFHFVGRIMGLAVFHGHYINGGFTVPFYKQLLGKPIQLSDLESVDPELHKSLVWILENDITPVLDHTFCVEHNAFGRILQHELKPNGRNVPVTEENKKEYVRLYVNWRFMRGIEAQFLALQKGFNELIPQHLLKPFDQKELELIIGGLDKIDLNDWKSNTRLKHCVADSNIVRWFWQAVETFDEERRARLLQFVTGSTRVPLQGFKALQGSTGAAGPRLFTIHLIDANTDNLPKAHTCFNRIDIPPYESYEKLYEKLLTAVEETCGFAVE
notes: domain: HECT domain; His- and Avi-tagged for selection and ELISA; also called S1
B8: HACE1 HECT domain (enzyme, human, UniProt Q8IYU2 529-909, looked up)
chain: EWFYEHLHSGQPDSDMVHRPVNENDILLVHRDSIFRSSCEVVSKANCAKLKQGIAVRFHGEEGMGQGVVREWFDILSNEIVNPDYALFTQSADGTTFQPNSNSYVNPDHLNYFRFAGQILGLALNHRQLVNIYFTRSFYKHILGIPVNYQDVASIDPEYAKNLQWILDNDISDLGLELTFSVETDVFGAMEEVPLKPGGGSILVTQNNKAEYVQLVTELRMTRAIQPQINAFLQGFHMFIPPSLIQLFDEYELELLLSGMPEIDVSDWIKNTEYTSGYEREDPVIQWFWEVVEDITQEERVLLLQFVTGSSRVPHGGFANIMGGSGLQNFTIAAVPYTPNLLPTSSTCINMLKLPEYPSKEILKDRLLVALHCGSYGYTMA
notes: as for B1
B9: HECTD1 HECT domain (enzyme, human, UniProt Q9ULT8 2151-2610, looked up)
chain: IHADRKSVLEVEFLGEEGTGLGPTLEFYALVAAEFQRTDLGAWLCDDNFPDDESRHVDLGGGLKPPGYYVQRSCGLFTAPFPQDSDELERITKLFHFLGIFLAKCIQDNRLVDLPISKPFFKLMCMGDIKSNMSKLIYESRGDRDLHCTESQSEASTEEGHDSLSVGSFEEDSKSEFILDPPKPKPPAWFNGILTWEDFELVNPHRARFLKEIKDLAIKRRQILSNKGLSEDEKNTKLQELVLKNPSGSGPPLSIEDLGLNFQFCPSSRIYGFTAVDLKPSGEDEMITMDNAEEYVDLMFDFCMHTGIQKQMEAFRDGFNKVFPMEKLSSFSHEEVQMILCGNQSPSWAAEDIINYTEPKLGYTRDSPGFLRFVRVLCGMSSDERKAFLQFTTGCSTLPPGGLANLHPRLTVVRKVDATDASYPSVNTCVHYLKLPEYSSEEIMRERLLAATMEKGFHLN
notes: as for B1
B10: HUWE1 HECT domain (enzyme, human, UniProt Q7Z6Z7 3993-4374, looked up)
chain: DFDVKRKYFRQELERLDEGLRKEDMAVHVRRDHVFEDSYRELHRKSPEEMKNRLYIVFEGEEGQDAGGLLREWYMIISREMFNPMYALFRTSPGDRVTYTINPSSHCNPNHLSYFKFVGRIVAKAVYDNRLLECYFTRSFYKHILGKSVRYTDMESEDYHFYQGLVYLLENDVSTLGYDLTFSTEVQEFGVCEVRDLKPNGANILVTEENKKEYVHLVCQMRMTGAIRKQLAAFLEGFYEIIPKRLISIFTEQELELLISGLPTIDIDDLKSNTEYHKYQSNSIQIQWFWRALRSFDQADRAKFLQFVTGTSKVPLQGFAALEGMNGIQKFQIHRDDRSTDRLPSAHTCFNQLDLPAYESFEKLRHMLLLAIQECSEGFGLA
notes: as for B1
B11: HECW2 HECT domain (enzyme)
chain: not shown
notes: as for B1
B12: EDD1 HECT domain (enzyme, human, UniProt O95071 2462-2799, looked up)
chain: LDLGLVDSSEKVQQENRKRHGSSRSVVDMDLDDTDDGDDNAPLFYQPGKRGFYTPRPGKNTEARLNCFRNIGRILGLCLLQNELCPITLNRHVIKVLLGRKVNWHDFAFFDPVMYESLRQLILASQSSDADAVFSAMDLAFAIDLCKEEGGGQVELIPNGVNIPVTPQNVYEYVRKYAEHRMLVVAEQPLHAMRKGLLDVLPKNSLEDLTAEDFRLLVNGCGEVNVQMLISFTSFNDESGENAEKLLQFKRWFWSIVEKMSMTERQDLVYFWTSSPSLPASEEGFQPMPSITIRPPDDQHLPTANTCISRLYVPLYSSKQILKQKLLLAIKTKNFGFV
notes: as for B1
B13: HERC2 HECT domain (enzyme, human, UniProt O95714 4412-4834, looked up)
chain: RQHGPVVELNRIQVKRSRSKGGLAGPDGTKSVFGQMCAKMSSFGPDSLLLPHRVWKVKFVGESVDDCGGGYSESIAEICEELQNGLTPLLIVTPNGRDESGANRDCYLLSPAARAPVHSSMFRFLGVLLGIAIRTGSPLSLNLAEPVWKQLAGMSLTIADLSEVDKDFIPGLMYIRDNEATSEEFEAMSLPFTVPSASGQDIQLSSKHTHITLDNRAEYVRLAINYRLHEFDEQVAAVREGMARVVPVPLLSLFTGYELETMVCGSPDIPLHLLKSVATYKGIEPSASLIQWFWEVMESFSNTERSLFLRFVWGRTRLPRTIADFRGRDFVIQVLDKYNPPDHFLPESYTCFFLLKLPRYSCKQVLEEKLKYAIHFCKSIDTDDYARIALTGEPAADDSSDDSDNEDVDSFASDSTQDYLTGH
notes: domain: HECT domain; His- and Avi-tagged for selection and ELISA; also called H2

Target: T1, Wild Type Ub (human, UniProt P0CG48 1-76)
T1 construct: native (tag-free) WT ubiquitin was the analyte in BLI; also called wt Ub; WT ubiquitin
Experiment: ELISA on immobilized HECT domain
Description: Proteins in study were immobilized on 384-well MaxiSorp plates (Thermo Scientific 12665347) by adding 30 μL of 1 μM proteins for overnight incubation at 4° C. Phage and protein ELISA against immobilized proteins was performed as described (Ernst et al., 2013). Binding of phage was detected using anti-M13-HRP antibody (GE Healthcare 27942101) and binding of FLAG-tagged UbVs was detected using anti-FLAG-HRP antibody (Sigma-Aldrich A8592). […] EC₅₀ values were calculated using the GraphPad Prism software with the built-in equation formula (non-linear regression curve).

Binding result, no binding:
B1
B2
B3
B4
B5
B6
B7
B8
B9
B10
B11
B12
B13
